Consider 8 molecules from patent US20110086806A1 (published 2011).

To fix the notation:
T1: recombinant human IL-23R/Fc chimera (R&D Systems) (human, UniProt Q5VWK5 24-355)
T1 construct: Bought; also called rhIL23RFc
T1 sequence (looked up): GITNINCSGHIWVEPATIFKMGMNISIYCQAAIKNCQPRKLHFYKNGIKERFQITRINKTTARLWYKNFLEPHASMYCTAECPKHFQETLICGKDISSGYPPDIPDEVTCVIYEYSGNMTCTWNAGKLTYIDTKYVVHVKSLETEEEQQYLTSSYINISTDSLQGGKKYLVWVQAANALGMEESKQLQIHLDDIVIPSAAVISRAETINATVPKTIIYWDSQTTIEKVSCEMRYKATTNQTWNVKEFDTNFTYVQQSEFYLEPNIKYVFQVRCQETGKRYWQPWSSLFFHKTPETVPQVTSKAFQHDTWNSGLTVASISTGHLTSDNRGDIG

B1: 001-69.4D4 monomeric CTLD (designed binder)
chain: ALQTVCLKGTKVHMKCFLAFTQTKTFHEASEDCISRGGTLSTPQTGSENDALYEYLRQSVGNEAEIWLGLNGSVRGRTWVDMTGARIAYKNWETEITAQPDGGIGVWGENCAVLSGAANGKWFDKRCRDQLPYICQFGIV
notes: C-terminal tag not specified
B2: 001-69.3C2 monomeric CTLD (designed binder)
chain: ALQTVCLKGTKVHMKCFLAFTQTKTFHEASEDCISRGGTLSTPQTGSENDALYEYLRQSVGNEAEIWLGLNTNVTRTLWVDMTGARIAYKNWETEITAQPDGGLGVWGENCAVLSGAANGKWFDKRCRDQLPYICQFGIV
notes: C-terminal tag not specified
B3: 001-69.4G8 ATRIMER complex, mammalian-cell produced (designed binder, not shown: small tags and cut ends)
chain: EPPTQKPKKIVNAKKDVVNTKMFEELKSRLDTLAQEVALLKEQQALQTVCLKGTKVHMKCFLAFTQTKTFHEASEDCISRGGTLSTPQTGSENDALYEYLRQSVGNEAEIWLGLNGSRRSGVWVDMTGARIAYKNWETEITAQPDGGFGVFGENCAVLSGAANGKWFDKRCRDQLPYICQFGIV
modifications: Homotrimer of this chain (ATRIMER complex); produced in HEK293 cells, glycosylation possible.
notes: Mammalian-cell produced material; also called 4G8 m; 4G8 TN m
B4: 001-89.C3C ATRIMER complex (designed binder)
chain: EPPTQKPKKIVNAKKDVVNTKMFEELKSRLDTLAQEVALLKEQQALQTVCLKGTKVHMKCFLAFTQTKTFHEASEDCISRGGTLSTPQTGSENDALYEYLRQSVGNEAEIWLGLNANRRRTMWVDMTGARIAYKNWETEITAQPDGGMGVWGENCAVLSGAANGKWFDKRCRDQLPYICQFGIV
notes: not shown: C-terminal tag: His/Myc (pANA4) or HA-StrepII (pANA10)
B5: 056-41.B12F ATRIMER complex (designed binder)
chain: EPPTQKPKKIVNAKKDVVNTKMFEELKSRLDTLAQEVALLKEQQALQTVCLKGTKVHMKCFLAFTQTKTFHEASEDCISRGGTLSTPQTGSENDALYEYLRQSVGNEAEIWLGLNGSVRSATWVDMTGARIAYKNWETEITAQPDGGYGVFGENCAVLSGAANGKWFDKRCRDQLPYICQFGIV
modifications: Homotrimer of this chain (ATRIMER complex).
notes: not shown: A possible extra N-terminal Ser from the ompA junction is left out
B6: 001-87.A5F ATRIMER complex (designed binder)
chain: EPPTQKPKKIVNAKKDVVNTKMFEELKSRLDTLAQEVALLKEQQALQTVCLKGTKVHMKCFLAFTQTKTFHEASEDCISRGGTLSTPQTGSENDALYEYLRQSVGNEAEIWLGLNGSVRSATWVDMTGARIAYKNWETEITAQPDGGFGYFGENCAVLSGAANGKWFDKRCRDQLPYICQFGIV
modifications: Homotrimer of this chain (ATRIMER complex).
notes: also called Atrimer A5F; not shown: A possible extra N-terminal Ser from the ompA junction is left out
B7: 056-41.B9B ATRIMER complex (designed binder)
chain: EPPTQKPKKIVNAKKDVVNTKMFEELKSRLDTLAQEVALLKEQQALQTVCLKGTKVHMKCFLAFTQTKTFHEASEDCISRGGTLSTPQTGSENDALYEYLRQSVGNEAEIWLGLNAPPDLGLWVDMTGARIAYKNWETEITAQPDGGWGVWGENCAVLSGAANGKWFDKRCRDQLPYICQFGIV
notes: as for B4
B8: 001-87.A4A ATRIMER complex (designed binder)
chain: EPPTQKPKKIVNAKKDVVNTKMFEELKSRLDTLAQEVALLKEQQALQTVCLKGTKVHMKCFLAFTQTKTFHEASEDCISRGGTLSTPQTGSENDALYEYLRQSVGNEAEIWLGLNWTLAKNLWVDMTGARIAYKNWETEITAQPDGGLFGRGENCAVLSGAANGKWFDKRCRDQLPYICQFGIV
notes: as for B4

The target of this test is T1, recombinant human IL-23R/Fc chimera …. Nature of the test: SPR. Here is the method:
A Biacore 3000 biosensor (GE Healthcare) was used to evaluate the interaction of human IL-23R and receptor binders. Immobilization of an anti-human IgG Fc antibody (GE Healthcare) to the CM5 chip (GE Healthcare) was performed using standard amine coupling chemistry, and this modified surface was used to capture a recombinant human IL-23R/Fc fusion protein (R&D Systems). A low-density receptor surface, less than 200 RU, was used for all of the analyses. ATRIMER™ polypeptide complex dilutions (1-500 nM) were injected over the IL-23R surface at 30 μl/min and kinetic constants were derived from the sensorgram data using the Biaevaluation software (version 3.1, GE Healthcare). Data collection was 3 minutes for the association and 5 minutes for dissociation. The anti-human IgG surface was regenerated with a 30s pulse of 3M magnesium chloride. All sensorgrams were double-referenced against an activated and blocked flow-cell as well as buffer injections.
As to B1, the Ka came to 6.76e+06 M⁻¹, the Kd worked out at 148 nM, the koff came out at 0.00419 s⁻¹ and the kon is 28300 M⁻¹ s⁻¹.
For B2, in that order: 5.39e+06 M⁻¹, 186 nM, 0.00741 s⁻¹ and 39900 M⁻¹ s⁻¹.
For B3, in that order: 2.1e+08 M⁻¹, 4.76 nM, 0.000751 s⁻¹ and 158000 M⁻¹ s⁻¹.
For B4, the Ka amounted to 1.2e+08 M⁻¹, the dissociation constant (Kd) came out at 8.34 nM, the koff was 0.000483 s⁻¹ and the association rate constant (kon) amounted to 57900 M⁻¹ s⁻¹.
In the case of B5, the Ka is 4.47e+08 M⁻¹, the dissociation constant Kd was determined as 2.24 nM, the off-rate (koff) came to 0.000545 s⁻¹ and the on-rate constant (kon) is 244000 M⁻¹ s⁻¹.
With B6, the Ka was determined as 2.19e+08 M⁻¹, the equilibrium dissociation constant (Kd) amounted to 4.57 nM, the koff stood at 0.0007 s⁻¹ and the kon worked out at 153000 M⁻¹ s⁻¹.
For B7, in that order: 1.94e+08 M⁻¹, 5.15 nM, 0.000478 s⁻¹ and 92800 M⁻¹ s⁻¹.
Turning to B8, the Ka was found to be 1.24e+08 M⁻¹, the Kd came out at 8.08 nM, the koff was determined as 0.000409 s⁻¹ and the kon is 50600 M⁻¹ s⁻¹.
